B1: human TRPC6 channel, full length, tags cleaved, in MSP2N2 lipid nanodiscs (natural protein, UniProt Q9Y210 1-931, looked up)
chain: MSQSPAFGPRRGSSPRGAAGAAARRNESQDYLLMDSELGEDGCPQAPLPCYGYYPCFRGSDNRLAHRRQTVLREKGRRLANRGPAYMFSDRSTSLSIEEERFLDAAEYGNIPVVRKMLEECHSLNVNCVDYMGQNALQLAVANEHLEITELLLKKENLSRVGDALLLAISKGYVRIVEAILSHPAFAEGKRLATSPSQSELQQDDFYAYDEDGTRFSHDVTPIILAAHCQEYEIVHTLLRKGARIERPHDYFCKCNDCNQKQKHDSFSHSRSRINAYKGLASPAYLSLSSEDPVMTALELSNELAVLANIEKEFKNDYKKLSMQCKDFVVGLLDLCRNTEEVEAILNGDVETLQSGDHGRPNLSRLKLAIKYEVKKFVAHPNCQQQLLSIWYENLSGLRQQTMAVKFLVVLAVAIGLPFLALIYWFAPCSKMGKIMRGPFMKFVAHAASFTIFLGLLVMNAADRFEGTKLLPNETSTDNAKQLFRMKTSCFSWMEMLIISWVIGMIWAECKEIWTQGPKEYLFELWNMLDFGMLAIFAASFIARFMAFWHASKAQSIIDANDTLKDLTKVTLGDNVKYYNLARIKWDPSDPQIISEGLYAIAVVLSFSRIAYILPANESFGPLQISLGRTVKDIFKFMVIFIMVFVAFMIGMFNLYSYYIGAKQNEAFTTVEESFKTLFWAIFGLSEVKSVVINYNHKFIENIGYVLYGVYNVTMVIVLLNMLIAMINSSFQEIEDDADVEWKFARAKLWFSYFEEGRTLPVPFNLVPSPKSLFYLLLKLKKWISELFQGHKKGFQEDAEMNKINEEKKLGILGSHEDLSKLSLDKKQVGHNKQPSIRSSEDFHLNSFNNPPRQYQKIMKRLIKRYVLQAQIDKESDEVNEGELKEIKQDISSLRYELLEEKSQNTEDLAELIRELGEKLSMEPNQEETNR
B2: N-terminal GFP-tagged hTRPC6 (natural protein, human, UniProt Q9Y210 1-931, looked up)
chain: B1 chain

Experiments:
cryo-EM structure = target: the molecule itself; test: cryo-EM structure
SEC = target: the molecule itself; test: SEC

Row | Protein | stoichiometry N (cryo-EM structure) | stoichiometry N (SEC)
1 | B1 | 4 | 
2 | B2 |  | 4

From publication doi:10.1101/282814 (bioRxiv, 2018)
